According to PMC3861539:

Legend:
human complement C3b [1] = target: human complement C3b (UniProt P01024); assay: flow cytometry on bacteria; details: Alexa488-labeled Fg 60 µg/ml; Efb (mutants) 0.5 µM; serum-opsonized S. aureus; buffer control est. 65 MFI; parent: est. 1300; read off a plot
human complement C3b [2] = target: human complement C3b (UniProt P01024); assay: ELISA; details: C3b-coated wells, 50 nM Fg detected with peroxidase-conjugated anti-Fg antibody, read off a plot
human fibrinogen (human) = human fibrinogen (human) (UniProt P02671)
UniProt P02671, sequence (P02671 36-866, chain 1 of 3): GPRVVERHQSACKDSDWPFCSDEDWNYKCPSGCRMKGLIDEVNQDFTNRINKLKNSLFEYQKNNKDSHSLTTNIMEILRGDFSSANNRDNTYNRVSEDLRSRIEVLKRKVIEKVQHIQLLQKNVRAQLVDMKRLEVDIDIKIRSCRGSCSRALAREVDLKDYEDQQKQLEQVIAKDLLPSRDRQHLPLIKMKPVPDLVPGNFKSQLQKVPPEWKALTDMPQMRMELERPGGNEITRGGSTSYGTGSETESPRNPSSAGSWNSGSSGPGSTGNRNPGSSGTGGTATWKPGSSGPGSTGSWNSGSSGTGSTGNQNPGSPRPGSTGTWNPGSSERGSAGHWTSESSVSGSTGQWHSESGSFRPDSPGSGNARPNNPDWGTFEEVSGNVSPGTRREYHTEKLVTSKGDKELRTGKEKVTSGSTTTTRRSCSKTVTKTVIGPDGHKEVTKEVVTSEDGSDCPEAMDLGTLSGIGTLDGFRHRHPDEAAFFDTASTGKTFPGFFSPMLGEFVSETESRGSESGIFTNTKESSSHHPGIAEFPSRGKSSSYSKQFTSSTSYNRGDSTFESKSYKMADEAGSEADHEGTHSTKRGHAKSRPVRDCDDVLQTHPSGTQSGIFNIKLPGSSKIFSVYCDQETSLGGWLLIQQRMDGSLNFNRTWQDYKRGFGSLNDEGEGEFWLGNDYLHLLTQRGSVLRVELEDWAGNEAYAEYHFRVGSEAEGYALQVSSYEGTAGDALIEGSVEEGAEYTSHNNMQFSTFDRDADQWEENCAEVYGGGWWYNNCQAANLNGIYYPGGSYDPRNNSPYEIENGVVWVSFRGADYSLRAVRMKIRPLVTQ
UniProt P02671, sequence (P02675 45-491, chain 2 of 3, further chain): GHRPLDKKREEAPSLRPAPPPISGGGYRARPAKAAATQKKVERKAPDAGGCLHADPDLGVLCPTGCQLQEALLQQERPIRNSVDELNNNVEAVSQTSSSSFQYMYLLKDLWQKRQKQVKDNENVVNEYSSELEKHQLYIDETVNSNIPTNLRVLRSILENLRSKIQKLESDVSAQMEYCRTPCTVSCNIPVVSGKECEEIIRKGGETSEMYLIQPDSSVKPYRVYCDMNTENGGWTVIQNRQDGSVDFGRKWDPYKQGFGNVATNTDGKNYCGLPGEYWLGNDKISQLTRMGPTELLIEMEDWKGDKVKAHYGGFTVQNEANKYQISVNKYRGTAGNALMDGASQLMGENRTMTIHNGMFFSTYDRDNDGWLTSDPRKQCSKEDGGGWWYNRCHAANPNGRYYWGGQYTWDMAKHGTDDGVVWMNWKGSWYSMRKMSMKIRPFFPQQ
UniProt P02671, sequence (P02679 27-453, chain 3 of 3, further chain): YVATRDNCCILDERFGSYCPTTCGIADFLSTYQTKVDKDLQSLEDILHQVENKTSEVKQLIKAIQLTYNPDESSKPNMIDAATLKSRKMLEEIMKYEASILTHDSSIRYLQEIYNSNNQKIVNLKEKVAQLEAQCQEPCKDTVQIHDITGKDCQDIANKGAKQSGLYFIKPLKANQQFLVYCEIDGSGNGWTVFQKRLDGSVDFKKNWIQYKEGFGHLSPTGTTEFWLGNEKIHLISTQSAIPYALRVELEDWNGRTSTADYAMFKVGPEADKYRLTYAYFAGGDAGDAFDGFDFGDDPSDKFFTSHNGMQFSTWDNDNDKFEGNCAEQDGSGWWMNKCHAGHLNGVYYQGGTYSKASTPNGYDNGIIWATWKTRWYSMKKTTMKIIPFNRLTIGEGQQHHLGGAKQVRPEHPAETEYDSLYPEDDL

Substance	response (human complement C3b [1]) [MFI]	response (human complement C3b [2]; Efb about 6 nM (fourth point, read from the x axis), parent: est. 0.93) [OD450]	response (human complement C3b [2]; Efb about 25 nM (highest point, read from the x axis), parent: est. 0.91) [OD450]	inhibition of phagocytosis of fluorescent S. aureus by human neutrophils in 2.5% human plasma, dose response of Efb (needs the interaction with C3b as well) (human fibrinogen (human)) [µM]
GST-tagged full-length Extracellular fibrinogen binding protein (Efb), wild type (from UniProt A6QG59) R131E; N138E	180	0.2	0.23	–
His-tagged Efb, wild type (from UniProt A6QG59 30-165) (natural protein)	–	–	–	0.08
